Entries after “also recorded” stand apart in the source; their conditions may differ. Where a SMILES comes first, the peptide text is derived from it. [ ]: non-standard residue; d: D form. The star is where a group is joined. Biotin = O=C1N[C@H]2[C@H](CS[C@H]2CCCCC(=O)*)N1; NHPr = CCCN*
Assays:
[1] = tested on: human Neural Stem Cells (hNSCs); assay: Live/Dead cell imaging (calcein AM / ethidium homodimer); assay type: cell-based; conditions: cells cultured for 10 days
Method: (§1) In vitro tests were performed following a previously adopted methodology (5). Briefly, cells (at a concentration of 6×10^4 cells/cm^2) were seeded on the top-surface of each assembled scaffold previously assembled into 96 multiwells. Initially, cells were cultured with basal medium supplemented with βFGF (10 ng/ml), added to enhance neuronal progeny differentiation. At 3 days in vitro (DIV), βFGF medium was replaced with Leukemia Inhibitory Factor (LIF, Chemicon) (20 ng/ml) and Brain Derived Neurotrophic Factor (BDNF, Peprotech) (20 ng/ml). Fresh medium was added every three days. Positive and negative controls consisted of CULTREX-BME® substrate (R&D systems) (1:100 dilution in basal medium) and untreated bottom well surfaces respectively.
Live/Dead cell imaging (MolecularProbes) was obtained by incubating cells cultured for 10 days with a staining solution containing 2.0 μM calcein AM and 4.0 μM ethidium homodimer in PBS at 37° C. for 60 min and visualized by inverted fluorescence microscope (Zeiss).

[2] = tested on: human Neural Stem Cells (hNSCs); assay: CellTiter 96 Aqueous Proliferation Assay of hNSCs on self-assembled scaffolds; assay type: cell-based; conditions: 7 DIV, n=6, versus negative control (plastic)
Method: Neural precursor cultures are established and expanded as previously described (15, 16). Human neural stem cells (NSCs) were isolated from the central nervous system, in particular from the diencephalon and the cerebral cortex of human brain 10.5 weeks from conception. The modalities for obtaining the primary tissue are in agreement with the guidelines of the European Network for Transplantation (NECTAR).
as §1
Cell viability was quantified via […] 96® Aqueous Proliferation Assay (Promega, Madison, Wis.) at 7 DIV as recommended in the Promega protocol. After calibrating the linear response between the cell number and absorbance values, proliferated cell populations were quantified (n=6) by using a Vmax microplate reader (Molecular Devices, Sunnyvale, Calif.) at 490 nm wavelength. Values, reported as means±standard error of the mean, were blanked to their respective controls consisting of same substrates and cell culture media without cells.
(§2) To assess the potential of the proposed SAPs for cell cultures and, more generally, for regenerative medicine, a two-dimensional cell culture protocol already developed for RADA16-I-like peptides was adapted (5). Briefly, human Neural Stem Cells (hNSCs), mechanically dissociated 1 day before plating, were seeded and cultured for one week in vitro over self-assembled scaffolds of B3, 4, B15, B17, B19, B22, B24, B25, B27, B28, 30, 31 and over non-coated tissue culture plastic wells (negative control).

[3] = Macro-scale scaffold formation upon exposure to PBS / neutral pH buffer; assay type: physicochemical; conditions: upon exposure to PBS (1×) / neutral pH buffer
Description: The tested peptides solutions appearance ranged from peptides giving clear liquid is solutions (e.g. 4, B15, B19, B25, B28, 30) to samples which become opaque in 1 to 7 days after dissolution (e.g. B3, B17, B22, B24, B27, 31) as shown in FIG. 2a (I). Most of the liquid solutions increased in viscosity over the first week after dissolution, however after ten days in water no appreciable changes happened at the macroscale.
(§3) Nonetheless, keeping constant the observation time, the storage moduli of peptide solutions previously dissolved (the day before) at 3% w/v were measured. Measurements were obtained of these peptide solutions, further diluted to 1% w/v at the same day of the experiment (unless otherwise specified), and, after addition of PBS, of the formed scaffolds.

[4] = tested on: human Neural Stem Cells (hNSCs); assay: Phase contrast imaging of hNSC morphology on scaffolds; assay type: cell-based; conditions: 7 days in vitro
Method: as §1, §2

[5] = Self-healing tests of assembled scaffolds after mechanical rupture; assay type: physicochemical; conditions: recovery of scaffold stiffness after mechanical rupture
Method: (§4) Rheological properties were determined for the peptides of the invention, using a controlled stress TA Instruments AR-2000ex rheometer (TAInstruments). A cone-and-plate geometry (acrylic cone diameter, 20 mm; angle, 1°; truncation gap 34 μm) was used. All measurements were obtained at a constant monitored temperature of 25° C. Preliminary strain sweeps were performed for each sample to define the linear viscoelastic region, thus ensuring that moduli were independent of strain. Time sweeps, after addition of PBS (1×) were recorded at constant angular frequency (ω=1 Hz). Frequency sweeps, both for peptide water solutions and for self-assembled scaffolds, were performed with the instrument in oscillatory mode at controlled strain of 1%. Final: onset point of rupture was calculated by linear interpolation and subsequent determination of the intersection of the G′ modes in the linear region and at material rupture respectively. G′ values were averaged in the 1-100 Hz region and between n=3 independent replicates. During self-healing tests the self-assembled scaffold was torn by applying a strain sweep (0.01%-1000% strain range) at 1 Hz oscillatory frequency. G′ values were is recorded in frequency sweep mode (at 1% strain) or, in time sweep mode (at 1 Hz and at 1% strain), before and after the strain sweep step, subsequent observations were performed every half hour or, in case of time sweep test, every 30 seconds. In all of the SAPs the difference between the storage moduli measured before and after PBS addition spanned from two to four orders of magnitude, proving the dramatic biomechanical changes taking place during scaffold gelation. Peptide B3 (1%) yielded a solid stiff scaffold (G′=2917 Pa), supporting the idea that ionic charges may screen the electrostatic repulsions given by positively charged lysine residues and speed up the spontaneous ongoing self-assembling process, on its turn giving an already viscous (G′=67 Pa) and opaque solution at day 1. Among the peptides giving soft scaffold (100 Pa-1000 Pa range) peptides 4, B19, B25, B28 and 30 were included. On the opposite side, SAPs yielding solid stiff scaffolds are B15, B22, B24, B27 and 31 (5000 Pa-9000 Pa range).
Solid scaffolds were obtained via addition of PBS (1×) in a cone-and-plate rheometer; we measured the storage modulus, the samples were subjected to a strain sweep (0.01% to 1000%) until and far beyond rupture occurred (i.e. is monitoring the sudden drop of G′ value). Samples were then left in place (keeping them hydrated with PBS) and their G′ were measured every 30 minutes via frequency sweep tests in the range of 0.1 Hz to 60 Hz. As a negative control KLD-12, a well-known SAP, was tested (4, 6). […] In FIG. 6b peptide B25 (3% w/v concentration) was assessed for self-healing in a time sweep mode, every 30 seconds, at 1 Hz and at 1% strain. Values of G′ recovered after 100 minutes (1000 Pa) and steadily plateaued over time. For peptides B3, B22, B25 and B27 full recovery was obtained at different time intervals after rupture, ranging from 60′ to 240′. Similar results were confirmed by multiple independent experiments, but at different time ranges, for all of the self-assembling peptides except for B19 and B28.
Samples were checked for rupture by tilting. After a maximum of four hours all of the samples returned to their solidified gel appearance. This healing could be repeated at will.

[6] = Rheological tests (storage modulus G′, cone-and-plate rheometer); assay type: physicochemical
Method: as §4
The mechanical properties of the synthesized peptides were tested with a cone-and-plate rheometer. Firstly, the G′ dependence of peptide water solutions on concentration increments, and consequently aggregation kinetics, was assessed as shown in FIG. 2b.
as §3

[7] = Solubility and behaviour on dissolution in water; assay type: physicochemical
Description: All of the synthesized peptides are soluble at 1% w/v concentration in distilled water and in acid (0.1 M HCl) solutions.

Row | Molecule | living cell population / hNSC viability (CellTiter assay) [2] | solid scaffold / hydrogel formation [3] | cell morphology / degree of spreading [4] | self-healing property [5] | self-assembling on dissolution [7] | further results
1 | C[C@@H](O)[C@H](NC(=O)[C@H](CCCNC(=N)N)NC(=O)[C@@H](NC(=O)[C@H](CO)NC(=O)[C@H](CO)NC(=O)[C@H](Cc1ccccc1)NC(=O)[C@@H]1CCCN1C(=O)CNC(=O)CNC(=O)CNC(=O)CCCC[C@@H]1SC[C@@H]2NC(=O)N[C@@H]21)[C@@H](C)O)C(N)=O [B22] (Biotin-GGGPFSSTRT-NH2) | – | – | – | – | – | live/dead cell imaging [1]: clamped in poorly branched aggregates; also recorded: bipolar cells
2 | Ac-WGGGAFSSTKT-CONH2 (Ac-WGGGAFSSTKT-NH2) [peptide 31] | comparable to the biotinilated peptides | yielded solid scaffolds | branched cells | self-healing property has been seen | – | –
3 | Ac-WGGGPFSSTKT-CONH2 (Ac-WGGGPFSSTKT-NH2) [peptide 4] | comparable to the biotinilated peptides | yielded solid scaffolds | – | self-healing property has been seen | – | –
4 | Biot-GGG(Propylamine)FSSTKT-CONH2 (Biotin-GGG[NHPr]FSSTKT-NH2) [peptide B28] | cell population comparable to those of the other peptides | yielded solid scaffolds | proliferated cell clusters | – | – | minimum necessary peptide concentration for gelation [6]: 3 % w/v
5 | Biot-GGGAFSSTKT-CONH2 (Biotin-GGGAFSSTKT-NH2; SMILES C[C@H](NC(=O)CNC(=O)CNC(=O)CNC(=O)CCCC[C@@H]1SC[C@@H]2NC(=O)N[C@@H]21)C(=O)N[C@@H](Cc1ccccc1)C(=O)N[C@@H](CO)C(=O)N[C@@H](CO)C(=O)N[C@H](C(=O)N[C@@H](CCCCN)C(=O)N[C@H](C(N)=O)[C@@H](C)O)[C@@H](C)O) [B15] | biggest living cell populations, significantly different from negative control | yielded solid scaffolds | branched cells | self-healing property has been seen | – | storage modulus G′ of assembled scaffold (G′ post-assembling) ([6]; after PBS (1×) addition, averaged in 1-100 Hz range, 25° C., B3 at 1%): 8500 Pa
6 | Biot-GGGAFSSTKTGRGD-CONH2 (Biotin-GGGAFSSTKTGRGD-NH2; SMILES C[C@H](NC(=O)CNC(=O)CNC(=O)CNC(=O)CCCC[C@@H]1SC[C@@H]2NC(=O)N[C@@H]21)C(=O)N[C@@H](Cc1ccccc1)C(=O)N[C@@H](CO)C(=O)N[C@@H](CO)C(=O)N[C@H](C(=O)N[C@@H](CCCCN)C(=O)N[C@H](C(=O)NCC(=O)N[C@@H](CCCNC(=N)N)C(=O)NCC(=O)N[C@@H](CC(=O)O)C(N)=O)[C@@H](C)O)[C@@H](C)O) [B19] | significantly different from negative control | yielded solid scaffolds | – | – | – | –
7 | Biot-GGGPFSSTDT-CONH2 (Biotin-GGGPFSSTDT-NH2; SMILES C[C@@H](O)[C@H](NC(=O)[C@H](CC(=O)O)NC(=O)[C@@H](NC(=O)[C@H](CO)NC(=O)[C@H](CO)NC(=O)[C@H](Cc1ccccc1)NC(=O)[C@@H]1CCCN1C(=O)CNC(=O)CNC(=O)CNC(=O)CCCC[C@@H]1SC[C@@H]2NC(=O)N[C@@H]21)[C@@H](C)O)C(N)=O) [B10] | – | – | – | – | immediately self-assembling with dissolution in water | –
8 | Biot-GGGPFSSTET-CONH2 (Biotin-GGGPFSSTET-NH2; SMILES C[C@@H](O)[C@H](NC(=O)[C@H](CCC(=O)O)NC(=O)[C@@H](NC(=O)[C@H](CO)NC(=O)[C@H](CO)NC(=O)[C@H](Cc1ccccc1)NC(=O)[C@@H]1CCCN1C(=O)CNC(=O)CNC(=O)CNC(=O)CCCC[C@@H]1SC[C@@H]2NC(=O)N[C@@H]21)[C@@H](C)O)C(N)=O) [B12] | – | – | – | – | immediately self-assembling with dissolution in water | –
9 | Biot-GGGPFSSTNT-CONH2 (Biotin-GGGPFSSTNT-NH2; SMILES C[C@@H](O)[C@H](NC(=O)[C@H](CC(N)=O)NC(=O)[C@@H](NC(=O)[C@H](CO)NC(=O)[C@H](CO)NC(=O)[C@H](Cc1ccccc1)NC(=O)[C@@H]1CCCN1C(=O)CNC(=O)CNC(=O)CNC(=O)CCCC[C@@H]1SC[C@@H]2NC(=O)N[C@@H]21)[C@@H](C)O)C(N)=O) [B11] | – | – | – | – | immediately self-assembling with dissolution in water | –
10 | Biot-GGGPFSSTQT-CONH2 (Biotin-GGGPFSSTQT-NH2; SMILES C[C@@H](O)[C@H](NC(=O)[C@H](CCC(N)=O)NC(=O)[C@@H](NC(=O)[C@H](CO)NC(=O)[C@H](CO)NC(=O)[C@H](Cc1ccccc1)NC(=O)[C@@H]1CCCN1C(=O)CNC(=O)CNC(=O)CNC(=O)CCCC[C@@H]1SC[C@@H]2NC(=O)N[C@@H]21)[C@@H](C)O)C(N)=O) [B13] | – | – | – | – | immediately self-assembling with dissolution in water | –
